Results published in the DeepSol protein solubility set.

Experiment: soluble on expression in E. coli; label from the status in PepcDB or PDB records

| Sequence | soluble on expression in E. coli |
| --- | --- |
| MGSDKIHHHHHHMTLWQPDPALIRRPAYQSLADQFARAIHDGRLANGARLPTHRRLADDLNLSVQTVSRAYEELIRRGLISGEIGRGSFVQTQRREPEPPYLPERLGEVIDLSILKPVCEPMHLERLKQALGWLAENLPSSSALSFRPNMVFPRHRAVAVEWLKLCGLDISAQNISLTNGATAGMTVALMSVAPPGSTVATEAIGHHTLVPLARYLGFNLQGLPIDDNGLIPEALDEACRLSDIRAVFVQPSVINPTATLMDAQRREQIAAVARKHDIAIIENDVLGPLVEDRPPPVAAFAPERTLYVTSFTKITVPGLRIGYLAAPDRYVAAVANRHLVSNWMATPLVAEIATKWVTDGTAMELVLWQRAALRRRQDIAAEVLARIDYRARRDGLHIWLQLPDDRAEEGFVAQARLQGVAIAPGTSFRISDAPWHPAVRISLGSTTEGELRAGLGVVTKLLLGDPEHLLLAI | not soluble |
| MGSDKIHHHHHHMTNIAILGTASDVGKSIVATALCRIFSNAGVDVAPYKAQNMSNNSGVTPDGFEMGRAQIVQAQAARVAPHADMNPVLLKPNTDTGAQVVLQGKVCADKSAREYFGDTQRWAEAAFESLDRLMVRHELLVIEGAGSCAEMNLYQRDFVNFKTARRAGAAVILVADIDRGGVFAQVVGTLAVIPPEDRALVKGVIINRFRGDKSLFEGGVKMLESMTGVPVLGVIPYFRGFTIDAEDAVPLSSVVDPKQEPSGDKIGVAAIYFPHISNFTDLAPLERDPSVELHYLHRPKSLDGYKALILPGSKNVRGDLAWLETMGWRDEIEKFRKRGGIIVGLCGGYQMLGASIADPYGVEGAPGASAGLAMLPVETVLEREKALCNSVGKIAGTPFFVSGYEIHMGRTALEPGASPLLEVTERNGVATDDFDGAKSADGQVTGTYFHGFFDRPEVRTWFLRLLDGGYESPRGASVADPFELLAKHFSENLDLEKLFAIAGLSVKGEKES | not soluble |
| MGSDKIHHHHHHMTNTLKTSYQKTPYKLGGNGPRNVGVLTEALQNIDDNSESDIYGNGAVIENFETKIAKILGKQSAVFFPSGTMAQQIALRIWADRKENRCVAYHPLSHLEIHEQDGLKELQQITPILLGTANRLLTIDDIKSLREPVSSVLIELPQREIGGQLPSFEELEEISEYCHEQGISLHLDGARLWEIMPFYQKSAEDICSLFDSVYVSFYKGIGGIAGAILAGNADFVQEAKIWKRRYGGDLISLYPYILSADYYFEKRIGKMAEYFEAAKGLAERFNSCPGLKTVPEVPISNMFHVYFEKSADEVGTILTKIQDETGVGISGYLQEKSADVCAFEVSVGDAFAEIPTKDLESAFECLEKELRL | not soluble |
| MGSDKIHHHHHHMTPEKIEQIFRSFKEKKIAVIGDVMIDKYIFGHVSRISPEYPVPVVDVNRESSRLGGAANVAVNIHALGAEALLIGVTGDDTERRNLEALMTEHGLNPAMLAADSTRPTTCKTRILSQNHHITRVDYESRTPVDAELEKRLLGMFMEIANAVDAVVLEDYNKGVLTPSLIVSLIAACRERNKPVLVDPKLKGFFSYGGCSVFKPNLSELAASLGIPVANDDREVEQACLLLGEKLTVESLVVTRSEKGMTVYDGSFTHIPALSLDVADVSGAGDTVIGTLALGLASGLDLVTSTRIANLAANTVCQEVGAVPVRPDKLFSACLAHLQ | not soluble |
| MGSDKIHHHHHHMTPSNVNSAGYKVIKISEFLSKKEYLDKKLVIPVYQRPYRWTAKNIVDLLSDLYYQCKRIGHRLGSPDNPDNFYRLGTVVLHQYVNNGSHQTNADLVDGQQRTLTLLLIMKSALESNRFTEQFNSFTPLEIELPDCSETQQNLSRNYELIRRHVNSPEFTSEVLDFLLNHCEVVQVTLHYLSEAFQFFDSQNARGLDLNPHDLLKAFHLREFPDSESLLKQNIVECWEQQNTKSLEVLFANYLYPIRRWSFGKQAVHFSKSEVNVFKGMKLDSDSYPFQENLRIVHNTVDSYNHHSHRLLDQQAMAYPFQLTQTLINGRRFFEWVTHYQEMIQPLLNKTIDSDSQKWLYTITSCHHTETGTSIKEVAKRPTAFNIFLVLNTDLPEYSYKGRSRRGDQYVRRMFDALVLCYYDRFGSHNLPRAIEYIFIWAYSLRLEKKSVYLESIEKHIGTDNLFERLQQSLSSVDFLSKPLPQPKKVDVTNVEGIKELFTKLGYLPT | not soluble |
| MGSDKIHHHHHHMTQLKTLPIYDPTLFEGAAEVYAQYRTKYPPAVFDKLTEIFNLNGQGRLLDLGTGPGLIAIPLSTKFQEVVAIDPDPEMLKEAQRQAATAGANNITWLEQGAELINPSLGVFKLATIGRAFHWMERQLVLERLYELLADDGAIALLNTGDDPWKSPLPWKQAAIGVVKKWLGEERRTGQRGQGIRKPVDPPHEVVIANSKFARQEVHEVTFEKSWTVSSYLGYLYTTAFSLKIFYGDKAEEFEADIKDALLAVEPSGHFTEELKATIQVVWKH | not soluble |
| MGSDKIHHHHHHMTQNTPLFSMESVSVRHNSVPALDAVSWTLHRGAHCAVLGGNGAGKSTLLRLAAGAIRPDQHDGGTVLWFPRGSAEDSPIAVRTHCGLVSAEQQEHYLRRSWRITGEEIVLSGYFGTDMLYRPAGTAQRHAAARLAKALDAEHLMPVMLEAMSQGQLRKILLARAMVHSPQLLLLDEVCEGLDAAARREMLAAIDRAAALGTTVLMSGHRAGQFPDCIRQAVLLRQGRLVFTGGLHQALHLMRTTHQPLPAGASDTAAGQCSCCTPPPACAGAAPVVEIEHADVYLGRTPVLHDITWSILPGQNWVVRGPNGAGKSTLLRLLYGDQRQAWGGIVRWFGMAGPVPLEEVRRNVALVSDRVQALYGHDGYHSTRLELNGEELVHTGFYDSTGLWGKTPDAQQHAAALRWMDRLGIAALAGTDIRRMSYGTLRRFMLARALVRDPQLLILDEPLSGLDESARRIMLTTLSALMRSGRQLVLVTHHQEDIQPETTHELHLNAGRITYCGPVCPAGDTL | not soluble |
| MGSDKIHHHHHHMTQQTDLQSKTNIDPLAMNDSFLAAADALAVDPMFGIPANVREVIARRGNATRLVILGTKGFGAHLMNVRHERPCEVIAAVDDFRYHSGELYYGLPIISTDRFTELATHDRDLVALNTCRYDGPKRFFDQICRTHGIPHLNFEQAVRAFGLQGNVDYRVDDWGADIVRNIPAFQTLAQRLADDYSVQTLYAVLNFHLTCEPEYYHEVERPYSTLYFRSGLLRFSDSEKMVDCGASIGESLAGLIGVTKGKFERVWMIEPDRINLQTLQNVLRRYTDTNFASRITVHGCGAGENTIRVPFNHEGGHGGFVKPADADHEPADLIDVRPIDDIIDDAPTFIKMDIEGSELSALKGARRAISEHKPKLAISAYHRSTDLLDLTNYILSIRPDYQIGLRHHTPDRWDTCLYFY | not soluble |
| MGSDKIHHHHHHMTQYEVDIMYEVKLDAFNGPLDLLLHLIQKFEIDIYDIPMQALTEQYMQYVHAMKQLEINIASEYLVLASELLMIKSKMLLPQSTSDMDVDDDPREDLVGRLIEYQNYKEYTAILNDMKEERDFYFTKRPTDLSHLETDESWDPNHTIDLTELIVAYQRVKNRVELNTPKSVEIRKETFTIQQATEQVTSRLKDKDHFNFFSLFTFSEPIEQVVTHFLAILEMSKAGIINIEQQRNFEDINIIRGVNYHFG | not soluble |
| MGSDKIHHHHHHMTRLAIVRQKYNPAGGAERFVSRALAALRDKGELEVSLIARRWEPVEGVKAYQVDGPYLGNVWRDWSFARKARRIWLREGFDLVQSHERIPGCDVYRAGDGVHRRWLQLRRQGMSAWGRFVLWCNPYHHYIQRAESEMFHHPRLKRVICNSQMVKREIQQYFGLSDQQIVVIYNGVDLQSFHPGLRSEHRQAMRSQWGVPGDAPLLLYVGSGFERKGVARALKALQANPGAWLMVVGGDKRLARYRRLADELGVDARVVFAGAQGEVRPFYGMADAFILPTLYDPFPNVCVEALASGLPVLTTRQCGAAEFVRQGENGWVCDAFDEEALARSVAEWLSVSRNWPVLAEAARRSVEGLSLGAMAERMLNCYRDLLSVSAVA | not soluble |
| MGSDKIHHHHHHMTRTEHEISFGPYTAVATTRGGALRELRHEGRDLVVGFAADGEIPDYRGVICAPWPNRLAGGRYSFEGKDYQAVVNEEQRGTALHGLVFGAVWELLEHTASSVRLGTRIEPGDGYPGRLDVSVDYELRADGLHSTVRARNVGVEAAPYGACPHPYLIAGPAPLDEWSVQIPATEFMEVSADRLLPEGMAGVEGHAFDFRTEKVLGSVQIDHAFTGLIPNADGLAAVRVHDPSGTGVELEWDATWPWLQIHTADKPSGPTRLGLAVEPMTCPPDAFNSGTDVLRLAPGESHEASWTIRALSR | not soluble |
| MGSDKIHHHHHHMTSANIQMAVYCFDVINAQLNREKEPPVPKEIPNVKLPLFVTWKKGHQHDLRGCIGTFSDLRLGEGLNEYAKTSAFHDSRFKPISREEVPSLQCGVSLLINFEPIHNFRDWTIGRHGVRMNFDDGHRNRSAVFLPEVAQEQGWNHVETIDHLIRKSGYGGHINDALRSALRIVRFQSSKLVLDYKDYVNYKQSHGLPLPR | not soluble |
| MGSDKIHHHHHHMTSKINKIVNGPIPDSFLFDESKRLDSLKFDGTNLEVLDQLLLPHEFKYIPVEGVSDAFAVIKSMQVRGAPLIAVVGSLGLLLEIQKASELDSESIIQKINFLISSRPTAVDLRNSLNGLKPILESQDYSDVVKLEKCRSYLLNVYTDEKLQNRILVWNAYQELLSAFPDKEKLTVMTICNTGSLATISWGTALGVIRALHSENRLKLVYVLETRPYNQGIRLTSIELLHGEVPFKLITDSMAAWAMKNHQVDCVLTGADNVARNGDTANKIGTYMLAVLCKHHNINFYPVVPFTTINKNIATGEEIKIEERPSAEMLRVNGVLIGNSECPVWNPAFDVTPAHLITKILTDFGNWPPEMLEQQIPK | not soluble |
| MGSDKIHHHHHHMTSQKYQSKTLKIAVVGDIHDQWEVEDGMALKHLGVDLVLFVGDFGNESVEVVRAIASLNIPKAAVMGNHDAWYTATEWGRKKCPYDRTKEDWVQEQLDLLGSAHVGYGKLDFPEWNLTVVGGRPFSWGGHEWRFADICKDRYGVTTLEESAQRIFASVKSAACETIIFLGHNGPSGLGDRPEDPCGKDWHPIGGDFGDPDLAEAISLTMTTGKQIALVTFGHMHHSLRHTKKELRKPIFKSPEGIVYLNAASVPRIVEGESGKLRNFSLVSLEAGEVTQASLIWVGEDFQVAKEEIFYERSTSVVPSV | not soluble |
| MGSDKIHHHHHHMTSRTPLVSVLPDFPWDSLASAKAKAASHPDGIVNLSVGTPVDPVAPSIQIALAEAAGFSGYPQTIGTPELRAAIRGALERRYNMTKLVDASLLPVVGTKEAIALLPFALGISGTVVIPEIAYPTYEVAVVAAGCTVLRSDSLFKLGPQIPSMMFINSPSNPTGKVLGIPHLRKVVKWAQENNVILAADECYLGLGWDDENPPISILDPRVCDGDHTNLIAIHSLSKTSNLASYRAGYLVGDPALIGELTEVRKNLGLMVPFPIQQAMIAALNDDDQEAGQKLTYAIRRAKLMRALLESGFQVDNSEAGLYLWATREEPCRDTVDWFAERGILVAPGDFYGPRGAQHVRVAMTETDERVDAFVSRLS | not soluble |
| MGSDKIHHHHHHMTTHSHTLTIAGQPLHYTDQGQGNTLVFIHGLLGNKVQWQSQIDALKANYRCIAIDLWGHGDSQTMPENTANLKDIASQLLSMLTALNINSCSLISLGTGCAIASEMALLSPKNINALVMINGFIGFEPEVNCVKYQGMLDEVQLNNGISTALAKQIATLFFNTQAQKTAVKTDTVTNAVTNEIESASVDSQISDKAMAALAQQLTEINAVQLSALVKFVPMAIYKRDTLEDVERFCLPSLILASNNNKLRTPLEAYLMQDTLDGSQLTQIPNAGHWVHLEQAEQLKQLISQFLQQH | not soluble |
| MGSDKIHHHHHHMTTRQPKTEADVLAETANLILDKYFHNQKNICTYDKIELARMLGLAEDNKKSDYALFHFIKALRYVVLGNFNEAINSYEATLRIPNSHAGILSNYATTLIILGELEQAKEMLIKCLNETDDGVSNLEYFANIIELYLLSTLDETLLQHAGNMKDSTLDKYSNILKLKTDINKIDISIQDYQEFTGVLIKFIFDKTRQIYQPRFSIDNGLDRQLNIEAFLNINPEEASYLNTEFRNQYLDYIFDNERHDLLGKFVVFFRQNKNREDGTEKPKAFYLGTNRELEA | not soluble |
